Assay results: paper PMC10460389, “Design of 8-mer peptides that block Clostridioides difficile toxin A in intestinal cells” (Communications Biology, 2023)
Ends that are not written are not given here.

Biological target: T1, Clostridioides difficile Toxin A labelled with Alexa Fluor 594 (Clostridioides difficile, UniProt P16154 1-2710)
T1 construct: also called TcdA-AF594; red fluorescently labeled TcdA
Assay: bead-based fluorescence imaging
Details: both partners purified

T1 sequence (P16154 whole entry, looked up): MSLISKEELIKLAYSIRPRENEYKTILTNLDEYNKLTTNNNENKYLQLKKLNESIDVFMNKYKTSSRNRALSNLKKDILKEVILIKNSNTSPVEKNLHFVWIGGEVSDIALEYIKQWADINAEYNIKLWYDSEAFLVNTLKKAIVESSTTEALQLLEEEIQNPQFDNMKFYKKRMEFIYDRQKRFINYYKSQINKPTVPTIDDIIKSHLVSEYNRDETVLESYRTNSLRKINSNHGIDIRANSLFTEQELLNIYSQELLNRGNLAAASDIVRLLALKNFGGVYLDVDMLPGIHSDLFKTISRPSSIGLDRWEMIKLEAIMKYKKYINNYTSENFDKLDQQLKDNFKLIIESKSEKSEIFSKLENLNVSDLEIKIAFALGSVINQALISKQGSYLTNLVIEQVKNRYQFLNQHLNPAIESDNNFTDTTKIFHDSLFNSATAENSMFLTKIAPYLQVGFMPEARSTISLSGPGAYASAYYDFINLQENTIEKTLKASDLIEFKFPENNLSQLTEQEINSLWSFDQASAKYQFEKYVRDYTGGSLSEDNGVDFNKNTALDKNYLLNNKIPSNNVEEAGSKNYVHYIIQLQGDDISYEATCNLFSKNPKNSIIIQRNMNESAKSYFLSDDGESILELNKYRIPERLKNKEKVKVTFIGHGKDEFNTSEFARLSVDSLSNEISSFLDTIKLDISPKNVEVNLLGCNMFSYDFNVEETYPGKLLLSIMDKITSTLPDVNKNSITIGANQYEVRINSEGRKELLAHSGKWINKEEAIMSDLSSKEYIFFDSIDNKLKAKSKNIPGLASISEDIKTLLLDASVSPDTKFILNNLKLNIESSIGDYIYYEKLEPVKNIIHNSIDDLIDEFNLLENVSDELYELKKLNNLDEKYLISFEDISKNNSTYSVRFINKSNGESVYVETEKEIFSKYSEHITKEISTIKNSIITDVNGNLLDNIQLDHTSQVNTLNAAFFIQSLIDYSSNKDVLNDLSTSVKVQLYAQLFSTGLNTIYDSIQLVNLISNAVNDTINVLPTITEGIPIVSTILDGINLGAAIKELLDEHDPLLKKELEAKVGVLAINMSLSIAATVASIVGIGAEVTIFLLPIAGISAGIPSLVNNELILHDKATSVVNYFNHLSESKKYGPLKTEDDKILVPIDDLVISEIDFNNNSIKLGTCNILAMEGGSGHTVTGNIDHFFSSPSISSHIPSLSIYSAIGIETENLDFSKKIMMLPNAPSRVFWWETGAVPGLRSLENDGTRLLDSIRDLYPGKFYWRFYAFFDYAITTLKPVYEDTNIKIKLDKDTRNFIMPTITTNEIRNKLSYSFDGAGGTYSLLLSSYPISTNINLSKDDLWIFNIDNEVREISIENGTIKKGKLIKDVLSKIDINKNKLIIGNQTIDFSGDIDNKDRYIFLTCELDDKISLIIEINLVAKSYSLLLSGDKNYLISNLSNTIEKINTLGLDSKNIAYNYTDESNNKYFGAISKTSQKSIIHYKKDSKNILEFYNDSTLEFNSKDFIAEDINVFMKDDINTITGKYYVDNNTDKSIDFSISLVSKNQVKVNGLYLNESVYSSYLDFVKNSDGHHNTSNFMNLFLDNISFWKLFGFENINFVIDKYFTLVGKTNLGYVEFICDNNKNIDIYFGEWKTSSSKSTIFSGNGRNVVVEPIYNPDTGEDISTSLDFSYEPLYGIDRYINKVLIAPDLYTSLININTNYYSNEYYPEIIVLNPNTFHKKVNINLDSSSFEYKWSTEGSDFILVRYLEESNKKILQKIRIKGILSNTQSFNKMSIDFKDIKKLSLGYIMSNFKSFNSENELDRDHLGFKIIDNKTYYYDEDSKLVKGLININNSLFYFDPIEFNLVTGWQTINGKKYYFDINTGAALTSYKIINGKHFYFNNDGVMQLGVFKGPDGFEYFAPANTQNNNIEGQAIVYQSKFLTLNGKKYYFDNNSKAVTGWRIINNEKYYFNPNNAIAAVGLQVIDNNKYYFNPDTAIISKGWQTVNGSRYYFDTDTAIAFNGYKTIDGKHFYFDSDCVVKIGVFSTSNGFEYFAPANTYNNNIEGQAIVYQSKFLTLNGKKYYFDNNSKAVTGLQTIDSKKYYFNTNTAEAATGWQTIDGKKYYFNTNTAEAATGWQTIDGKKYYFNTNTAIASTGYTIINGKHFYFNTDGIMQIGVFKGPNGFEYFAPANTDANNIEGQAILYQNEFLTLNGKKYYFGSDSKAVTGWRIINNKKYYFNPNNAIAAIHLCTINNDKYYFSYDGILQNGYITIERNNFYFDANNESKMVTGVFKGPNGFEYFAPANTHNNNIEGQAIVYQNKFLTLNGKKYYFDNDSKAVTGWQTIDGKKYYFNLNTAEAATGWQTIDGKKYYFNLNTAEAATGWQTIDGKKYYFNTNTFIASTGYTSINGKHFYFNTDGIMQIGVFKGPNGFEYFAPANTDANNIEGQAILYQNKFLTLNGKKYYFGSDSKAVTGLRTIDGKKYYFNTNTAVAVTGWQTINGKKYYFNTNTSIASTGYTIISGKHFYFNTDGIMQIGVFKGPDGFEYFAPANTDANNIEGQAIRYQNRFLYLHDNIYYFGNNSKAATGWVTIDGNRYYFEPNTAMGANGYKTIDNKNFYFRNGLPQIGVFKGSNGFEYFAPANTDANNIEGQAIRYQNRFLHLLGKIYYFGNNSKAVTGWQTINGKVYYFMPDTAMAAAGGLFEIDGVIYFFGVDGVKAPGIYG

MFWEHRHRGSG (also: on ChemMatrix Aminomethyl bead via GSG linker) [SA4 on ChemMatrix Aminomethyl bead (GSG linker)]: binds.

QDWMRRHWGSG (also: on ChemMatrix Aminomethyl bead via GSG linker) [SA2 on ChemMatrix Aminomethyl bead (GSG linker)]: binds.
